# Results from patent US9695228B2, “EGFR and c-Met fibronectin type III domain binding molecules” (Janssen Biotech, Inc., priority 2012, dated 2017).
# Where two headings read alike, the source gives them in different places.
# Assays:
# [1] = system: H292-HGF human lung cancer xenograft; format: in vivo; conditions: for Tumor Size at day 23: day 23 after tumor inoculation, doses as printed with treatment
# Method: The H292-HGF cells were maintained in vitro in RPMI1640 medium supplemented with fetal bovine serum (10% v/v), and L-glutamine (2 mM) at 37° C. in an atmosphere of 5% CO2 in air. The cells were routinely subcultured twice weekly by trypsin-EDTA treatment. The cells growing in an exponential growth phase were harvested and counted for tumor inoculation.
# Each mouse was inoculated subcutaneously at the right flank region with H292-HGF tumor cells (2×10^6) in 0.1 ml of PBS with cultrex (1:1) for tumor development. The treatments were started when the mean tumor size reached 139 mm^3. […] The date of tumor cell inoculation was denoted as day 0.
# Before commencement of treatment, all animals were weighed and the tumor volumes were measured. Since the tumor volume can affect the effectiveness of any given treatment, mice were assigned into groups using randomized block design based upon their tumor volumes. […] The randomized block design was used to assign experimental animals to groups. First, the experimental animals were divided into homogeneous blocks according to their initial tumor volume. Secondly, within each block, randomization of experimental animals to treatments was conducted.
# At the time of routine monitoring, the animals were checked for any effects of tumor growth and treatments on normal behavior, such as mobility, visual estimation of food and water consumption, body weight gain/loss (body weights were measured twice weekly), eye/hair matting and any other abnormal effect.
# The endpoint was whether tumor growth can be delayed or tumor bearing mice can be cured. Tumor size was measured twice weekly in two dimensions using a caliper, and the volume was expressed in mm^3 using the formula: V=0.5 a×b^2 where a and b are the long and short diameters of the tumor, respectively. The tumor size was then used for calculations of both T-C and T/C values. T-C was calculated with T as the time (in days) required for the mean tumor size of the treatment group to reach 1000 mm^3, and C was the time (in days) for the mean tumor size of the control group to reach the same size. The T/C value (in percent) was an indication of antitumor efficacy; T and C were the mean tumor volume of the treated and control groups, respectively, on a given day. Complete tumor regression (CR) is defined as tumors that are reduced to below the limit of palpation (62.5 mm^3). Partial tumor regression (PR) is defined as tumors that are reduced from initial tumor volume. A minimum duration of CR or PR in 3 or more successive tumor measurements is required for a CP or PR to be considered durable.
# Animals for which the body weight loss exceeded 20%, or for which the mean tumor size of the group exceeds 2000 mm^3 were euthanized. The study was terminated after two weeks of observation after the final dose.
# Statistical analyses of difference in tumor volume among the groups were evaluated using a one-way ANOVA followed by individual comparisons using Games-Howell (equal variance not assumed). All data were analyzed using SPSS 18.0. p<0.05 was considered to be statistically significant.
# c-Met-Fc fusion protein = target: T1, c-Met-Fc fusion protein (Homo sapiens, UniProt P08581); assay: c-Met-Fc affinity by surface plasmon resonance (ProteOn); format: binding; conditions: for binding to c-Met (in words): SPR; for Kd / ka / kd: serine mutants of A3 in the context of ECB15, SPR
# T1 construct: recombinant EGFR and/or c-Met extracellular domain was further analyzed by surface Plasmon resonance
# [2] = Differential scanning calorimetry in PBS (thermal stability); format: physicochemical; conditions: DSC in PBS, c-Met-binding FN3 domains
# T1 sequence (P08581 25-932 limits assumed): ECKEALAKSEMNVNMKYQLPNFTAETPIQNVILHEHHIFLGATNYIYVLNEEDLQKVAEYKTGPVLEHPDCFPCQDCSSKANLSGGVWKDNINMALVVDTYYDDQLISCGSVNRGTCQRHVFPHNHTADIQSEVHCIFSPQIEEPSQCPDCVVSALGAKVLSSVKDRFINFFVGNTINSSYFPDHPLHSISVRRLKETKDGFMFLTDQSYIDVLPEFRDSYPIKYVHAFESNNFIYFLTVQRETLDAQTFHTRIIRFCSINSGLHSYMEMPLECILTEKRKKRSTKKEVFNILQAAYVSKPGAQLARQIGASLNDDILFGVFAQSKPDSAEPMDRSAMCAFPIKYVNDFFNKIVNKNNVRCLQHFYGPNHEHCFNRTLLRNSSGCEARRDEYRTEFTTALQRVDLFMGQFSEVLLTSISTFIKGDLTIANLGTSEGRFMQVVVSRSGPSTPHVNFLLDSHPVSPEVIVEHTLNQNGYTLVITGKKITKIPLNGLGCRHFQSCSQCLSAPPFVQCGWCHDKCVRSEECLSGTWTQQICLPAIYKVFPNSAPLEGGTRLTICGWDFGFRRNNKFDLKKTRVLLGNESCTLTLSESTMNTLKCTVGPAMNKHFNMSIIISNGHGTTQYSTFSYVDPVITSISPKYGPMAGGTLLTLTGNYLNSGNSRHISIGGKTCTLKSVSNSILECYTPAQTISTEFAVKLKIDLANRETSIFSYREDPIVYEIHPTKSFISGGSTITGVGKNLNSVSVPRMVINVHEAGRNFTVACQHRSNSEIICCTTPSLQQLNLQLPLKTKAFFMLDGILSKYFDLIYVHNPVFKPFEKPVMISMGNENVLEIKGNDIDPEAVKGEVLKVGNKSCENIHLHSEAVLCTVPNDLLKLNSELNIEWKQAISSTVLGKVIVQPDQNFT
ka (c-Met-Fc fusion protein) [M⁻¹ s⁻¹],kd (c-Met-Fc fusion protein) [s⁻¹],Molecule,Thermal Stability (Tm) [2] [C.],also measured
321000,0.000536,"A3 P81S: serine mutant of c-Met domain A3 in the context of ECB15, SEQ ID NO: 217 (protein, c-Met binding FN3 domain) LPAPKNLVVSRVTEDSARLSWTAPDAAFDSFWIRYFEFLGSGEAIVLTVPGSERSYDLTGLKPGTEYVVNIMGVKGGKISSPLSAIFTT",–,–
440000,0.00015,"A3 K78S: serine mutant of c-Met domain A3 in the context of ECB15, SEQ ID NO: 212 (protein, c-Met binding FN3 domain) LPAPKNLVVSRVTEDSARLSWTAPDAAFDSFWIRYFEFLGSGEAIVLTVPGSERSYDLTGLKPGTEYVVNIMGVKGGSISPPLSAIFTT",–,–
329000,0.0012,"A3 V68S: serine mutant of c-Met domain A3 in the context of ECB15, SEQ ID NO: 215 (protein, c-Met binding FN3 domain) LPAPKNLVVSRVTEDSARLSWTAPDAAFDSFWIRYFEFLGSGEAIVLTVPGSERSYDLTGLKPGTEYSVNIMGVKGGKISPPLSAIFTT",–,–
289000,0.0086,"A3 W32S: serine mutant of c-Met domain A3 in the context of ECB15, SEQ ID NO: 219 (protein, c-Met binding FN3 domain) LPAPKNLVVSRVTEDSARLSWTAPDAAFDSFSIRYFEFLGSGEAIVLTVPGSERSYDLTGLKPGTEYVVNIMGVKGGKISPPLSAIFTT",–,–
475000,0.00127,"A3 L39S: serine mutant of c-Met domain A3 in the context of ECB15, SEQ ID NO: 214 (protein, c-Met binding FN3 domain) LPAPKNLVVSRVTEDSARLSWTAPDAAFDSFWIRYFEFSGSGEAIVLTVPGSERSYDLTGLKPGTEYVVNIMGVKGGKISPPLSAIFTT",–,–
425000,0.00249,"A3 N70S: serine mutant of c-Met domain A3 in the context of ECB15, SEQ ID NO: 216 (protein, c-Met binding FN3 domain) LPAPKNLVVSRVTEDSARLSWTAPDAAFDSFWIRYFEFLGSGEAIVLTVPGSERSYDLTGLKPGTEYVVSIMGVKGGKISPPLSAIFTT",–,–

# The remaining lines, values behind:
Molecule,ka (c-Met-Fc fusion protein) [M⁻¹ s⁻¹],kd (c-Met-Fc fusion protein) [s⁻¹],Thermal Stability (Tm) [2] [C.],also measured
"C#Cc1cccc(Nc2ncnc3cc(OCCOC)c(OCCOC)cc23)c1 [Erlotinib, erlotinib, reference compound]",–,–,–,tolerability / body weight loss (in words) ([1]; doses as in Table 14): More severe body weight loss
"C[C@@H](Oc1cc(-c2cnn(C3CCNCC3)c2)cnc1N)c1c(Cl)ccc(F)c1Cl [Crizotinib, crizotinib, reference compound]",–,–,–,"T-C at 1000 mm^3 (tumor growth delay) ([1]; compared with the vehicle group): -1 days; Tumor volume ([1]; day 7 (start of treatment), mean ± SEM, doses as in column head): 140 ± 9 mm^3; Tumor volume ([1]; day 9, mean ± SEM): 217 ± 20 mm^3; Tumor volume ([1]; day 13, mean ± SEM): 547 ± 43 mm^3; Tumor volume ([1]; day 16, mean ± SEM): 914 ± 92 mm^3; Tumor volume ([1]; day 20, mean ± SEM): 1438 ± 239 mm^3; T/C ([1]; day 23): 120%; Tumor volume ([1]; day 23, mean ± SEM): 2102 ± 298 mm^3; Tumor Size at day 23 [1]: 2102 ± 298 mm^3; Tumor Size at day 23 ([1]; listed as crizotinib): 2,102 mm^3; antitumor activity (in words) ([1]; doses as in Table 14): no antitumor activity; tolerability / body weight loss (in words) ([1]; doses as in Table 14): More severe body weight loss"
"A3 M72S: serine mutant of c-Met domain A3 in the context of ECB15, SEQ ID NO: 220 (protein, c-Met binding FN3 domain) LPAPKNLVVSRVTEDSARLSWTAPDAAFDSFWIRYFEFLGSGEAIVLTVPGSERSYDLTGLKPGTEYVVNISGVKGGKISPPLSAIFTT",–,–,–,binding to c-Met (in words) (c-Met-Fc fusion protein): No binding was measurable; Kd (c-Met-Fc fusion protein): > 1000 nM
"P114AR7P94-A3: c-Met-binding FN3 domain, SEQ ID NO: 41 (protein, c-Met binding FN3 domain) LPAPKNLVVSRVTEDSARLSWTAPDAAFDSFWIRYFEFLGSGEAIVLTVPGSERSYDLTGLKPGTEYVVNIMGVKGGKISPPLSAIFTT",–,–,86.2,–
"A3 R34S: serine mutant of c-Met domain A3 in the context of ECB15, SEQ ID NO: 221 (protein, c-Met binding FN3 domain) LPAPKNLVVSRVTEDSARLSWTAPDAAFDSFWISYFEFLGSGEAIVLTVPGSERSYDLTGLKPGTEYVVNIMGVKGGKISPPLSAIFTT",–,–,–,binding to c-Met (in words) (c-Met-Fc fusion protein): No binding was measurable; Kd (c-Met-Fc fusion protein): > 1000 nM
"P114AR7P93-G8: c-Met-binding FN3 domain, SEQ ID NO: 39 (protein, c-Met binding FN3 domain) LPAPKNLVVSRVTEDSARLSWTAPDAAFDSFWIRYFEFLGSGEAIVLTVPGSERSYDLTDLKPGTEYGVTINGVKGGRVSTPLSAIFTT",–,–,76.8,–
"P114AR7P92-H5: c-Met-binding FN3 domain, SEQ ID NO: 37 (protein, c-Met binding FN3 domain) LPAPKNLVVSRVTEDSARLSWTAPDAAFDSFWIRYLEFLLGGEAIVLTVPGSERSYDLTGLKPGTEYVVQIMGVKGGTVSPPLSAIFTT",–,–,87,–
"A3 F36S: serine mutant of c-Met domain A3 in the context of ECB15, SEQ ID NO: 218 (protein, c-Met binding FN3 domain) LPAPKNLVVSRVTEDSARLSWTAPDAAFDSFWIRYSEFLGSGEAIVLTVPGSERSYDLTGLKPGTEYVVNIMGVKGGKISPPLSAIFTT",188000,0.00512,–,–
"P114AR7P94-E5: c-Met-binding FN3 domain, SEQ ID NO: 42 (protein, c-Met binding FN3 domain) LPAPKNLVVSRVTEDSARLSWTAPDAAFDSFWIRYFEFLGSGEAIVLTVPGSERSYDLTGLKPGTEYAVNIMGVKGGRVSVPLSAIFTT",–,–,80,–
"P114AR7P95-G7: c-Met-binding FN3 domain, SEQ ID NO: 48 (protein, c-Met binding FN3 domain) LPAPKNLVVSRVTEDSARLSWTAPDAAFDSFWIRYFELLSTGEAIVLTVPGSERSYDLTGLKPGTEYVVNIMGVKGGSISPPLSAIFTT",–,–,87.2,–
"P114AR7P95-D4: c-Met-binding FN3 domain, SEQ ID NO: 45 (protein, c-Met binding FN3 domain) LPAPKNLVVSRVTEDSARLSWTAPDAAFDSFWIRYFEFLGSGEAIVLTVPGSERSYDLTGLKPGTEYVVQILGVKGGYISIPLSAIFTT",–,–,85.3,–
"P114AR7P93-H9: c-Met-binding FN3 domain, SEQ ID NO: 40 (protein, c-Met binding FN3 domain) LPAPKNLVVSRVTEDSARLSWTAPDAAFDSFWIRYFEFLGSGEAIVLTVPGSERSYDLTGLKPGTEYVVQIIGVKGGHISLPLSAIFTT",–,–,88.2,–
"A3 G40S: serine mutant of c-Met domain A3 in the context of ECB15, SEQ ID NO: 213 (protein, c-Met binding FN3 domain) LPAPKNLVVSRVTEDSARLSWTAPDAAFDSFWIRYFEFLSSGEAIVLTVPGSERSYDLTGLKPGTEYVVNIMGVKGGKISPPLSAIFTT",185000,0.00032,–,–
"A3 179S: serine mutant of c-Met domain A3 in the context of ECB15, SEQ ID NO: 223 (protein, c-Met binding FN3 domain) LPAPKNLVVSRVTEDSARLSWTAPDAAFDSFWIRYFEFLGSGEAIVLTVPGSERSYDLTGLKPGTEYVVNIMGVKGGKSSPPLSAIFTT",–,–,–,binding to c-Met (in words) (c-Met-Fc fusion protein): No binding was measurable; Kd (c-Met-Fc fusion protein): > 1000 nM
"A3 F38S: serine mutant of c-Met domain A3 in the context of ECB15, SEQ ID NO: 222 (protein, c-Met binding FN3 domain) LPAPKNLVVSRVTEDSARLSWTAPDAAFDSFWIRYFESLGSGEAIVLTVPGSERSYDLTGLKPGTEYVVNIMGVKGGKISPPLSAIFTT",45100,0.0323,–,–
"P114AR7P95-F10: c-Met-binding FN3 domain, SEQ ID NO: 47 (protein, c-Met binding FN3 domain) LPAPKNLVVSRVTEDSARLSWTAPDAAFDSFWIRYFEFTTAGEAIVLTVPGSERSYDLTGLKPGTEYVVNIMGVKGGSISPPLSAIFTT",–,–,85.2,–
"P114AR7P92-G8: c-Met-binding FN3 domain, SEQ ID NO: 36 (protein, c-Met binding FN3 domain) LPAPKNLVVSRVTEDSARLSWTAPDAAFDSFVIRYFEFLGSGEAIVLTVPGSERSYDLTGLKPGTEYVVQILGVKGGYISIPLSAIFTT",–,–,90.9,–
